Measured values reported in patent publication US20160097096A1 (KOREA RESEARCH INSTITUTE OF BIOSCIENCE AND BIOTECHNOLOGY, published 2016).

Target: T1, human Desmoglein 2 (Dsg2) (human, UniProt Q14126 50-1118)
T1 construct: whole, on cells; Endogenous protein; In flow cytometry it stood on the surface of H1, H9 and iPSC cells; In immunoprecipitation and Western blotting it came from lysate of (surface-biotinylated) H9 cells, with bands of 165 kDa or 100 kDa
T1 sequence (looked up): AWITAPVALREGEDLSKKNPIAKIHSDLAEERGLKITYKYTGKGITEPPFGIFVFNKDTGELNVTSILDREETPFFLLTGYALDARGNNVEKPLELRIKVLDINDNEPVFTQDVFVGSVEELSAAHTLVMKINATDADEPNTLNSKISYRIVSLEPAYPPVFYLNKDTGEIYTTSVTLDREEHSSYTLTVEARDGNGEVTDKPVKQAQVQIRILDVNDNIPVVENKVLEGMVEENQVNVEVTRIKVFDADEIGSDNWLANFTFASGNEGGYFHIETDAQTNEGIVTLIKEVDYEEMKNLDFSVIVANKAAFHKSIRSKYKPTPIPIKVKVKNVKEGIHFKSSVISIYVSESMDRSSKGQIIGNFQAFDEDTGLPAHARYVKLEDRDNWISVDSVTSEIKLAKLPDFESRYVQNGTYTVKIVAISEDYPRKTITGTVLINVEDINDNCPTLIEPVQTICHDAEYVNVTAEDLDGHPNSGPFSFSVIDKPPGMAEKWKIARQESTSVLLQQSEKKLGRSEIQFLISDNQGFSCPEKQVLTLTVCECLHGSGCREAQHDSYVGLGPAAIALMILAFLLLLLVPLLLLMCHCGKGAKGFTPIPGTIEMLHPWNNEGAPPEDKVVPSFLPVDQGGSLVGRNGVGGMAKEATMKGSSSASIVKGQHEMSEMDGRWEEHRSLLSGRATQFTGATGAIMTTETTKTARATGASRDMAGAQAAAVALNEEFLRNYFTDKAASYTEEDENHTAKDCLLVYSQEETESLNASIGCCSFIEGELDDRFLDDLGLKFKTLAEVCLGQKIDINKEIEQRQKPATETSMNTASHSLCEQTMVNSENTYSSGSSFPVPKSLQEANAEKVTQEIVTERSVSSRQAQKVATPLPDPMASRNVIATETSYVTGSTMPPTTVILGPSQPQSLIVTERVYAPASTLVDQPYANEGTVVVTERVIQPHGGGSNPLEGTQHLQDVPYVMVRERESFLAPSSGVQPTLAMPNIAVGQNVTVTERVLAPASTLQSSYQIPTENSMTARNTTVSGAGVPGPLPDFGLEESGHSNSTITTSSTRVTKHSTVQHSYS
Experiment: flow cytometry, fluorescence staining of H1, H9 and iPSC cells (endogenous Dsg2 on the surface)
Procedure: Among those clones prepared in Example 2, the hybridoma clone which secreted the antibody comparatively stably was selected and the binding capacity to human pluripotent stem cells was investigated. Particularly, the cultured human pluripotent stem cells were separated by using collagenase IV. The cells were treated with cell separation buffer (GIBCO) for 20 minutes at 37° C., leading to the separation of the cells as single cells. The cells were passed through 40 μm strainer, and 2×10⁵ cells proceeded to flow cytometry. The human pluripotent stem cells prepared as single cells were suspended in PBA (1% BSA was dissolved in PBS), followed by reaction with the antibody supernatant at 4° C. for 30 minutes. Centrifugation was performed at 4° C. at 1200 rpm for 5 minutes and 100 μl of the supernatant was eliminated. The anti-mouse Ig-FITC (BD) was diluted (1:200). […]
To investigate the binding capacity of the antibody 6-1 purified in Example <3-2> to human pluripotent stem cells, fluorescence staining was performed by the same manner as described in Example <3-1> (FIG. 2A). […] In FIG. 2A, the blue line illustrates the fluorescence staining of human pluripotent stem cells with the monoclonal antibody 6-1, wherein the antibody 6-1 bound to all of those three kinds of human pluripotent stem cells.

binding result: binds
B1: monoclonal antibody 6-1 (antibody, V domains shown)
VH: QVKLQESGPELVRPGESVKISCKGSGYTFTDYAMHWVKQSPAKTLEWLGVISIYYDNTNYNQKFKGKATLTVDKSSSTAYMELARLTSEDSAIYYCAREGDYFALDYWGQGTSVTVSS
VL: DIVMTQSPAIMSASPGEKVTMTCSASSSVSYMYWYQQKPGSSPRLLIYDTSNLASGVPVRFSGSGSGTSYSLTISRMEAEDAATYYCQQWSSFPLTFGAGTKLELKR
notes: Mouse monoclonal antibody from hybridoma 6-1 (Balb/c mouse immunised with H9 cells, fused with NS1 myeloma); Purified from ascites on protein G-sepharose; hybridoma supernatant was used for screening; They were cloned with an IgG1 constant region primer and a kappa chain constant region primer
